Laboratory results as given in PMC9168451.

Columns and labels:
[1] = target: AbMtlD H434C_Y469C double-cysteine variant (Acinetobacter baumannii)
[2] = target: AbMtlD Y427C_A466C double-cysteine variant (Acinetobacter baumannii)
[3] = target: Acinetobacter baumannii bifunctional mannitol-1-phosphate dehydrogenase/phosphatase (AbMtlD), wild type (Acinetobacter baumannii); assay: SEC-MALS

AbMtlD H434C_Y469C double-cysteine variant (from UniProt A0ABX6CFK3 1-715) (enzyme)
F6P reduction activity, kcat/Km for F6P (wild type: 2.388) [1]: 149000 M⁻¹ s⁻¹

AbMtlD Y427C_A466C double-cysteine variant (from UniProt A0ABX6CFK3 1-715) (enzyme)
F6P reduction activity, kcat/Km for F6P (wild type: 2.388) [2]: 139000 M⁻¹ s⁻¹

Acinetobacter baumannii bifunctional mannitol-1-phosphate dehydrogenase/phosphatase (AbMtlD), wild type (from UniProt A0ABX6CFK3 1-715) (enzyme)
stoichiometry N [3]: 2
